This is an account of results in US20250171562A1 (ALK ABELL, published 2025).

Sequences and labels used below:
B1: CIgG4F5A1(G4S)1 (Fc fusion)
chain 1: GPPCPPCPAPEFLGGPSVFLFPPKPKDTLMISRTPEVTCVVVDVSQEDPEVQFNWYVDGVEVHNAKTKPREEQFNSTYRVVSVLTVLHQDWLNGKEYKCKVSNKGLPSSIEKTISKAKGQPREPQVYTLPPCQEEMTKNQVSLWCLVKGFYPSDIAVEWESNGQPENNYKTTPPVLDSDGSFFLYSRLTVDKSRWQEGNVFSCSVMHEALHNHYTQKSLSLSLGKGGGGSDVQLQESGGGLVQPGGSLRLSCAASGSIFSIDIMGWYRQAPGKQRELVATMPEGNYINYADSVKGRLTLSRDKGKNTVYLQLNSLKPEDTAVYYCYGFGVREGRGNVYWGQGTQVTVS
chain 2: GPPCPPCPAPEFLGGPSVFLFPPKPKDTLMISRTPEVTCVVVDVSQEDPEVQFNWYVDGVEVHNAKTKPREEQFNSTYRVVSVLTVLHQDWLNGKEYKCKVSNKGLPSSIEKTISKAKGQPREPQVCTLPPSQEEMTKNQVSLSCAVKGFYPSDIAVEWESNGQPENNYKTTPPVLDSDGSFFLVSRLTVDKSRWQEGNVFSCSVMHEALHNHYTQKSLSLSLGKGGGGSEVQLLESGGGLVQPGGSLRLSCAASGFTFGNYDMAWVRQAPGKRPEWVSSIDTGGDITHYADSVKGRFTISRDNAKNTLYLQMNSLRPEDTAVYWCATDEEYALGPNEFDYYGQGTLVTVSS
B2: CIgG4F6A1(G4S)1 (Fc fusion)
chain 1: GPPCPPCPAPEFLGGPSVFLFPPKPKDTLMISRTPEVTCVVVDVSQEDPEVQFNWYVDGVEVHNAKTKPREEQFNSTYRVVSVLTVLHQDWLNGKEYKCKVSNKGLPSSIEKTISKAKGQPREPQVYTLPPCQEEMTKNQVSLWCLVKGFYPSDIAVEWESNGQPENNYKTTPPVLDSDGSFFLYSRLTVDKSRWQEGNVFSCSVMHEALHNHYTQKSLSLSLGKGGGGSDVQLQESGGGLVQAGGSLRLSCAASGLTFGSYDMGWYRQAPGKQRELVGRIRNDGITYYADSVKGRFTMSRDNAKNTVYLQMNSLKPEDTAVYYCAADGTGLGHYDYWGQGTQVTVS
chain 2: GPPCPPCPAPEFLGGPSVFLFPPKPKDTLMISRTPEVTCVVVDVSQEDPEVQFNWYVDGVEVHNAKTKPREEQFNSTYRVVSVLTVLHQDWLNGKEYKCKVSNKGLPSSIEKTISKAKGQPREPQVCTLPPSQEEMTKNQVSLSCAVKGFYPSDIAVEWESNGQPENNYKTTPPVLDSDGSFFLVSRLTVDKSRWQEGNVFSCSVMHEALHNHYTQKSLSLSLGKGGGGSEVQLLESGGGLVQPGGSLRLSCAASGFTFGNYDMAWVRQAPGKRPEWVSSIDTGGDITHYADSVKGRFTISRDNAKNTLYLQMNSLRPEDTAVYWCATDEEYALGPNEFDYYGQGTLVTVSS
B3: CIgG4F5A1(RS) (Fc fusion)
chain 1: GPPCPPCPAPEFLGGPSVFLFPPKPKDTLMISRTPEVTCVVVDVSQEDPEVQFNWYVDGVEVHNAKTKPREEQFNSTYRVVSVLTVLHQDWLNGKEYKCKVSNKGLPSSIEKTISKAKGQPREPQVYTLPPCQEEMTKNQVSLWCLVKGFYPSDIAVEWESNGQPENNYKTTPPVLDSDGSFFLYSRLTVDKSRWQEGNVFSCSVMHEALHNHYTQKSLSLSLGKRSDVQLQESGGGLVQPGGSLRLSCAASGSIFSIDIMGWYRQAPGKQRELVATMPEGNYINYADSVKGRLTLSRDKGKNTVYLQLNSLKPEDTAVYYCYGFGVREGRGNVYWGQGTQVTVS
chain 2: GPPCPPCPAPEFLGGPSVFLFPPKPKDTLMISRTPEVTCVVVDVSQEDPEVQFNWYVDGVEVHNAKTKPREEQFNSTYRVVSVLTVLHQDWLNGKEYKCKVSNKGLPSSIEKTISKAKGQPREPQVCTLPPSQEEMTKNQVSLSCAVKGFYPSDIAVEWESNGQPENNYKTTPPVLDSDGSFFLVSRLTVDKSRWQEGNVFSCSVMHEALHNHYTQKSLSLSLGKRSEVQLLESGGGLVQPGGSLRLSCAASGFTFGNYDMAWVRQAPGKRPEWVSSIDTGGDITHYADSVKGRFTISRDNAKNTLYLQMNSLRPEDTAVYWCATDEEYALGPNEFDYYGQGTLVTVSS
B4: CIgG4F6A1(RS) (Fc fusion)
chain 1: GPPCPPCPAPEFLGGPSVFLFPPKPKDTLMISRTPEVTCVVVDVSQEDPEVQFNWYVDGVEVHNAKTKPREEQFNSTYRVVSVLTVLHQDWLNGKEYKCKVSNKGLPSSIEKTISKAKGQPREPQVYTLPPCQEEMTKNQVSLWCLVKGFYPSDIAVEWESNGQPENNYKTTPPVLDSDGSFFLYSRLTVDKSRWQEGNVFSCSVMHEALHNHYTQKSLSLSLGKRSDVQLQESGGGLVQAGGSLRLSCAASGLTFGSYDMGWYRQAPGKQRELVGRIRNDGITYYADSVKGRFTMSRDNAKNTVYLQMNSLKPEDTAVYYCAADGTGLGHYDYWGQGTQVTVS
chain 2: GPPCPPCPAPEFLGGPSVFLFPPKPKDTLMISRTPEVTCVVVDVSQEDPEVQFNWYVDGVEVHNAKTKPREEQFNSTYRVVSVLTVLHQDWLNGKEYKCKVSNKGLPSSIEKTISKAKGQPREPQVCTLPPSQEEMTKNQVSLSCAVKGFYPSDIAVEWESNGQPENNYKTTPPVLDSDGSFFLVSRLTVDKSRWQEGNVFSCSVMHEALHNHYTQKSLSLSLGKRSEVQLLESGGGLVQPGGSLRLSCAASGFTFGNYDMAWVRQAPGKRPEWVSSIDTGGDITHYADSVKGRFTISRDNAKNTLYLQMNSLRPEDTAVYWCATDEEYALGPNEFDYYGQGTLVTVSS
B5: CIgG4F4A1(G4S)3 (Fc fusion)
chain 1: GPPCPPCPAPEFLGGPSVFLFPPKPKDTLMISRTPEVTCVVVDVSQEDPEVQFNWYVDGVEVHNAKTKPREEQFNSTYRVVSVLTVLHQDWLNGKEYKCKVSNKGLPSSIEKTISKAKGQPREPQVYTLPPCQEEMTKNQVSLWCLVKGFYPSDIAVEWESNGQPENNYKTTPPVLDSDGSFFLYSRLTVDKSRWQEGNVFSCSVMHEALHNHYTQKSLSLSLGKGGGGSGGGGSGGGGSDVQLQESGGGLVQAGGSLRLSCAVSGLSFSSMGWFRQPPGKEREFVAAISLYSGSTYYADSVKGRFTISSDNAKSTVYLQMNSLKPEDAAVYFCAADRQRTWSTFYASRQATYNYWGQGTQVTVTS
chain 2: GPPCPPCPAPEFLGGPSVFLFPPKPKDTLMISRTPEVTCVVVDVSQEDPEVQFNWYVDGVEVHNAKTKPREEQFNSTYRVVSVLTVLHQDWLNGKEYKCKVSNKGLPSSIEKTISKAKGQPREPQVCTLPPSQEEMTKNQVSLSCAVKGFYPSDIAVEWESNGQPENNYKTTPPVLDSDGSFFLVSRLTVDKSRWQEGNVFSCSVMHEALHNHYTQKSLSLSLGKGGGGSGGGGSGGGGSEVQLLESGGGLVQPGGSLRLSCAASGFTFGNYDMAWVRQAPGKRPEWVSSIDTGGDITHYADSVKGRFTISRDNAKNTLYLQMNSLRPEDTAVYWCATDEEYALGPNEFDYYGQGTLVTVSS
B6: CIgG4F5A1(G4S)3 (Fc fusion)
chain 1: GPPCPPCPAPEFLGGPSVFLFPPKPKDTLMISRTPEVTCVVVDVSQEDPEVQFNWYVDGVEVHNAKTKPREEQFNSTYRVVSVLTVLHQDWLNGKEYKCKVSNKGLPSSIEKTISKAKGQPREPQVYTLPPCQEEMTKNQVSLWCLVKGFYPSDIAVEWESNGQPENNYKTTPPVLDSDGSFFLYSRLTVDKSRWQEGNVFSCSVMHEALHNHYTQKSLSLSLGKGGGGSGGGGSGGGGSDVQLQESGGGLVQPGGSLRLSCAASGSIFSIDIMGWYRQAPGKQRELVATMPEGNYINYADSVKGRLTLSRDKGKNTVYLQLNSLKPEDTAVYYCYGFGVREGRGNVYWGQGTQVTVS
chain 2: GPPCPPCPAPEFLGGPSVFLFPPKPKDTLMISRTPEVTCVVVDVSQEDPEVQFNWYVDGVEVHNAKTKPREEQFNSTYRVVSVLTVLHQDWLNGKEYKCKVSNKGLPSSIEKTISKAKGQPREPQVCTLPPSQEEMTKNQVSLSCAVKGFYPSDIAVEWESNGQPENNYKTTPPVLDSDGSFFLVSRLTVDKSRWQEGNVFSCSVMHEALHNHYTQKSLSLSLGKGGGGSGGGGSGGGGSEVQLLESGGGLVQPGGSLRLSCAASGFTFGNYDMAWVRQAPGKRPEWVSSIDTGGDITHYADSVKGRFTISRDNAKNTLYLQMNSLRPEDTAVYWCATDEEYALGPNEFDYYGQGTLVTVSS
B7: CIgG4F4A1(G4S)2 (Fc fusion)
chain 1: GPPCPPCPAPEFLGGPSVFLFPPKPKDTLMISRTPEVTCVVVDVSQEDPEVQFNWYVDGVEVHNAKTKPREEQFNSTYRVVSVLTVLHQDWLNGKEYKCKVSNKGLPSSIEKTISKAKGQPREPQVYTLPPCQEEMTKNQVSLWCLVKGFYPSDIAVEWESNGQPENNYKTTPPVLDSDGSFFLYSRLTVDKSRWQEGNVFSCSVMHEALHNHYTQKSLSLSLGKGGGGSGGGGSDVQLQESGGGLVQAGGSLRLSCAVSGLSFSSMGWFRQPPGKEREFVAAISLYSGSTYYADSVKGRFTISSDNAKSTVYLQMNSLKPEDAAVYFCAADRQRTWSTFYASRQATYNYWGQGTQVTVTS
chain 2: GPPCPPCPAPEFLGGPSVFLFPPKPKDTLMISRTPEVTCVVVDVSQEDPEVQFNWYVDGVEVHNAKTKPREEQFNSTYRVVSVLTVLHQDWLNGKEYKCKVSNKGLPSSIEKTISKAKGQPREPQVCTLPPSQEEMTKNQVSLSCAVKGFYPSDIAVEWESNGQPENNYKTTPPVLDSDGSFFLVSRLTVDKSRWQEGNVFSCSVMHEALHNHYTQKSLSLSLGKGGGGSGGGGSEVQLLESGGGLVQPGGSLRLSCAASGFTFGNYDMAWVRQAPGKRPEWVSSIDTGGDITHYADSVKGRFTISRDNAKNTLYLQMNSLRPEDTAVYWCATDEEYALGPNEFDYYGQGTLVTVSS
B8: CIgG4F5A1(G4S)2 (Fc fusion)
chain 1: GPPCPPCPAPEFLGGPSVFLFPPKPKDTLMISRTPEVTCVVVDVSQEDPEVQFNWYVDGVEVHNAKTKPREEQFNSTYRVVSVLTVLHQDWLNGKEYKCKVSNKGLPSSIEKTISKAKGQPREPQVYTLPPCQEEMTKNQVSLWCLVKGFYPSDIAVEWESNGQPENNYKTTPPVLDSDGSFFLYSRLTVDKSRWQEGNVFSCSVMHEALHNHYTQKSLSLSLGKGGGGSGGGGSDVQLQESGGGLVQPGGSLRLSCAASGSIFSIDIMGWYRQAPGKQRELVATMPEGNYINYADSVKGRLTLSRDKGKNTVYLQLNSLKPEDTAVYYCYGFGVREGRGNVYWGQGTQVTVS
chain 2: GPPCPPCPAPEFLGGPSVFLFPPKPKDTLMISRTPEVTCVVVDVSQEDPEVQFNWYVDGVEVHNAKTKPREEQFNSTYRVVSVLTVLHQDWLNGKEYKCKVSNKGLPSSIEKTISKAKGQPREPQVCTLPPSQEEMTKNQVSLSCAVKGFYPSDIAVEWESNGQPENNYKTTPPVLDSDGSFFLVSRLTVDKSRWQEGNVFSCSVMHEALHNHYTQKSLSLSLGKGGGGSGGGGSEVQLLESGGGLVQPGGSLRLSCAASGFTFGNYDMAWVRQAPGKRPEWVSSIDTGGDITHYADSVKGRFTISRDNAKNTLYLQMNSLRPEDTAVYWCATDEEYALGPNEFDYYGQGTLVTVSS

T1 sequence (P01854 other isoform, or with tags, fused parts or gaps): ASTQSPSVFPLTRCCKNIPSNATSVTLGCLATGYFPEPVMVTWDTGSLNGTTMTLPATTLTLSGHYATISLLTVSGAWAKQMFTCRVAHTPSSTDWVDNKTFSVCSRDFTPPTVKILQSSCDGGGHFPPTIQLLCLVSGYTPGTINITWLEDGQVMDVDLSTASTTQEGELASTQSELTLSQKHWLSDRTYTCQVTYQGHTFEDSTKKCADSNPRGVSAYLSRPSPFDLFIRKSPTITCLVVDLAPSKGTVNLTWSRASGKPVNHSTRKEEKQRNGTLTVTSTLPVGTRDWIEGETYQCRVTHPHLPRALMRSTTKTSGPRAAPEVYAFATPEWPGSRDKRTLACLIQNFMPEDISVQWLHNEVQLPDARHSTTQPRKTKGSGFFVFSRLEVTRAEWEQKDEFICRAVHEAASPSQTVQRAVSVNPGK

This assay concerns the target T1, recombinant human IgE (human, UniProt P01854-1 1-428).
T1 construct: made in-house (ALK); preloaded on immobilised FcεRIα in the displacement ELISA
Nature of the assay: IgE-FcεRIα displacement ELISA. The method in brief: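 sdAbs at pM–μM were incubated 1 h on preformed complexes of 13 ng/ml recombinant human IgE with avi-tag-biotinylated human FcεRIα captured on streptavidin.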
Take B1: the Max effect worked out at 30%.
B2: the Max effect amounted to 25%.
On to B3, for which the Max effect came to 15%.
Take B4: the Max effect was found to be 20%.
For the molecule B5, the EC50 (usually the concentration needed to bring the measured effect to its halfway point) is 50 nM and the Max effect was found to be 90%.
On to B6, for which the EC50 was 400 nM and the Max effect amounted to 65%.
Taken in the same sequence, the figures for B7 were 30 nM and 90%.
For B8, the EC50 amounted to 580 nM and the Max effect stood at 55%.
